Results: patent US20240409629A1 (CHIA TAI TIANQING PHARMACEUTICAL GROUP, published 2024)
Read-outs that look alike come from different tables or passages of the source.

B1: chimeric antibody xi28G3 (antibody, human IgG1, kappa, V domains shown)
VH: EIQLQQTGPELVKPGASVTISCKTSGYSFTDYLMLWVKQSHGKSLEWIGNINPYYGRTTYNLKFKGKATLTVDRSSSTAYMQLNSLTSEDSAVYYCARDGYSLRNAMDYWGQGTSVTVSS
VL: DIVMTQSPYSLSVSTGEKVTMSCKSSQSLFNSGNQKNYLAWYQQKPGQPPKLLIYGASTRESGVPDRFTGSGSGTDFTLTISSVQAEDLALYYCQNAHSYPYTFGGGTKLEIKR
notes: Mouse variable regions on human IgG1/kappa; defucosylated, expressed in FUT8-knockout CHO-S cells; also called chimeric 28G3
B2: chimeric antibody xi40F6 (antibody, human IgG1, kappa, V domains shown)
VH: QVQLKESGPGLVAPSQSLSITCTVSGFSLTSYGVYWVRQSPGKGLEWLGVVWAGGNTNYNSALMSRLSISKDNSKSQVFLKMNSLQTDDTAMYYCARDRGRLLAMDYWGQGTSVTVSS
VL: DVVMTQSPSSLSVSAGEKVTMSCKSSQSLLNSGNQKNYLAWYQQKPGQPPKLLIYGASTRESGVPDRFTGSGSGTDFTLTISSVQAEDLAVYYCQNDHFFPFTFGSGTKLEIKR
notes: Mouse variable regions on human IgG1/kappa; defucosylated, expressed in FUT8-knockout CHO-S cells; also called chimeric 40F6
B3: chimeric antibody xi22F12 (antibody, human IgG1, kappa, V domains shown)
VH: QVQLKESGPGLVAPSQSLSITCTVSGFSLTSYGVYWVRQPPGKGLEWLGVIWAGGSTNYNSALMSRLSINKDNSKSQVFLKMNSLQTDDTAMYYCARDRGRLLSMDYWGQGTSVTVSS
VL: DIVMTQSPSSLSVSAGEKVTMSCRSSQSLLNSGNQKNYLAWYQQKPGQPPKLLIYGASTRESGVPDRFTGSGSGTDFTLTIGSVQAEDLAVYYCQNVHFFPFTFGSGTKLEIKR
notes: Mouse variable regions on human IgG1/kappa; defucosylated, expressed in FUT8-knockout CHO-S cells; also called chimeric 22F12
B4: chimeric antibody xi34G6 (antibody, human IgG1, kappa, V domains shown)
VH: QVQLKESGPDLVAPSQSLSITCTVSGFSLTSYGVHWVRQPPGKGLEWLVVIWSDGSTTYNSALKSRLSISKDNSKSQVFLKMNSLQTDDTAIYYCARHAYYGNSFDYWGQGTTLTVSS
VL: DIVMTQSPSSLTVTAGEKVTMSCKSSQSLLNSGNQKSYLTWYQQKPGQPPKLLIYWASTRESGVPDRFTGSGSGTDFTLTISSVQAEDLAVYYCQNVYIFPLTFGAGTKLELKR
notes: Mouse variable regions on human IgG1/kappa; defucosylated, expressed in FUT8-knockout CHO-S cells; also called chimeric 34G6
B5: chimeric antibody xi10D8 (antibody, human IgG1, kappa, V domains shown)
VH: QIQLAQSGPELKKPGETVKVSCKASGYTFKNYGMNWVKQAPGKGLKWMGWININTGEPRYAEEFKGRIAFSLETSASTAYLLINNLKNEDTATYFCARYGYGNSFPYWGQGTLVTVSA
VL: DIVMTQSPSSLTVTVGEKVTMSCKSSQSLLNSGNQRNYLTWYQQKPGQPPKLLIYWASTRESGVPDRFTGSGSGTAFTLTVSSVQAEDLAVYYCQNDYSYPLTFGAGTKLEMKR
notes: Mouse variable regions on human IgG1/kappa; defucosylated, expressed in FUT8-knockout CHO-S cells; also called chimeric 10D8

Tests used:
[1] = molecular target: human CLDN18.2 (human); assay: cell-based or functional assay
[2] = molecular target: human CLDN18.2 (human); assay: cell-based or functional assay; remark: listed apart in the source
[3] = molecular target: human CLDN18.2 (human); assay: cell-based or functional assay; remark: listed apart in the source
[4] = molecular target: T1, human CLDN18.2 (human); assay: FACS, KATOIII cells (natural CLDN18.2)
T1 construct: also called claudin18.2
Description: (§1) Based on the FACS method, the binding activity of anti-CLDN18.2 humanized antibodies for the cell lines KATOIII (Cell Bank of the Chinese Academy of Sciences) and NUGC-4 (Cell Bank of the Chinese Academy of Sciences) naturally expressing CLDN18.2 was analyzed. […] See Example 3 for the specific method.

[5] = molecular target: T1, human CLDN18.2; assay: FACS, NUGC-4 cells (natural CLDN18.2)
Description: as §1

[6] = molecular target: T1, human CLDN18.2; assay: cell-based or functional assay; remark: listed apart in the source
[7] = molecular target: T1, human CLDN18.2; assay: FACS, KATOIII cells (natural CLDN18.2); remark: listed apart in the source
Description: (§2) Based on the FACS method, the binding activity of anti-CLDN18.2 antibodies for the cell line U2OS-CLDN18.2 overexpressing CLDN18.2 and the cell lines KATOIII (Cell Bank of the Chinese Academy of Sciences) and NUGC-4 (Cell Bank of the Chinese Academy of Sciences) naturally expressing CLDN18.2 was analyzed.
(§3) The cell concentration was adjusted with PBS, and cells (U2OS-CLDN18.2, KATOIII, or NUGC-4 cells) were added to a 96-well plate at 3×10⁵ cells/well, then the test antibodies at different concentrations were added to each well of the 96-well plate, and the mixture was incubated at 4° C. for 60 min. […] The supernatant was discarded, the cells were washed 3 times with pre-cooled PBS buffer, PE-Goat Anti-Human IgG Fcγ (Jackson immunoresearch, Cat. No. 109-116-170) diluted at 1:200 was added at 100 μL/well, and the mixture was incubated at 4° C. for 30 min. Cells were washed 3 times with pre-cooled PBS buffer and resuspended in 100 μL of PBS buffer, and then the fluorescence signals were detected using a flow cytometer (Sartorius, iQUE3). The binding ability of the anti-CLDN18.2 antibodies for CLDN18.2 was measured by mean fluorescence intensity (MFI) of staining.

[8] = molecular target: T1, human CLDN18.2; assay: cell-based or functional assay; remark: listed apart in the source
[9] = molecular target: T2, human CLDN18.1 (human, UniProt P56856 1-261); assay: FACS, U2OS-CLDN18.1 cells; MFI against 2-fold the IgG1 isotype control
T2 construct: also called claudin18.1
Description: (§4) Based on the FACS method, the binding activity of anti-CLDN18.2 antibodies for the cell line U2OS-CLDN18.1 overexpressing CLDN18.1 (SEQ ID NO: 2) was analyzed. The cell concentration was adjusted with PBS, and the U2OS-CLDN18.1 cells were added to a 96-well plate at 3×10⁵ cells/well, then the test antibodies were added to each well of the 96-well plate, the final concentration of the antibody was 200 nM, and the mixture was incubated at 4° C. for 60 min. The supernatant was discarded, the cells were washed 3 times with pre-cooled PBS buffer, PE-Goat Anti-Human IgG Fcγ (Jackson immunoresearch, Cat. No. 109-116-170) diluted at 1:200 was added at 100 μL/well, and the mixture was incubated at 4° C. for 30 min. Cells were washed 3 times with pre-cooled PBS buffer and resuspended in 100 μL of PBS buffer, and then the fluorescence signals were detected using a flow cytometer (Sartorius, iQUE3). The nonspecific binding of the anti-CLDN18.2 antibodies for U2OS-CLDN18.1 cells was measured by mean fluorescence intensity (MFI) of staining. The IgG1 isotype control antibody (prepared in-house, with the heavy and light chain amino acid sequences as set forth in SEQ ID NOs: 67 and 68 in the present disclosure) was used as the control, and 2-fold the IgG1 isotype control antibody was used as the benchmark, thus determining the presence or absence of nonspecific binding.

[10] = molecular target: T1, human CLDN18.2; assay: FACS, NUGC-4 cells (natural CLDN18.2); remark: listed apart in the source
Description: as §2, §3

[11] = molecular target: T2, human CLDN18.1; assay: FACS, U2OS-CLDN18.1 cells, antibody at 200 nM
Description: as §4

[12] = molecular target: T1, human CLDN18.2; assay: FACS, U2OS-CLDN18.2 cells
Description: as §2, §3

[13] = molecular target: T1, human CLDN18.2; assay: cell-based or functional assay; remark: listed apart in the source
[14] = molecular target: T1, human CLDN18.2; assay: FACS, U2OS-CLDN18.2 cells; remark: listed apart in the source
Description: as §2, §3

[15] = molecular target: T1, human CLDN18.2; assay: FACS, NUGC-4 cells (natural CLDN18.2); remark: listed apart in the source
Description: as §1

[16] = molecular target: T1, human CLDN18.2; assay: FACS, KATOIII cells (natural CLDN18.2); remark: listed apart in the source
Description: as §1

[17] = molecular target: T1, human CLDN18.2; assay: cell-based or functional assay; remark: listed apart in the source
[18] = molecular target: T1, human CLDN18.2; assay: FACS, NUGC-4 cells (natural CLDN18.2); remark: listed apart in the source
Description: as §2, §3

[19] = molecular target: T1, human CLDN18.2; assay: cell-based or functional assay; remark: listed apart in the source
[20] = molecular target: T1, human CLDN18.2; assay: FACS, KATOIII cells (natural CLDN18.2); remark: listed apart in the source
Description: as §2, §3

[21] = molecular target: T1, human CLDN18.2; assay: FACS, U2OS-CLDN18.2 cells; remark: listed apart in the source
Description: as §2, §3

[22] = molecular target: T1, human CLDN18.2; assay: FACS, NUGC-4 cells (natural CLDN18.2); remark: listed apart in the source
Description: as §2, §3

Binder	CDC EC50, KATOIII target cells [1] [nM]	CDC EC50, U2OS-CLDN18.2 target cells [1] [nM]	ADCC EC50, Jurkat-CD16a v158-NFAT-luciferase effector cells, KATOIII target cells [2] [nM]	ADCC EC50, Jurkat-CD16a v158-NFAT-luciferase effector cells, NUGC-4 target cells [2] [nM]	ADCC EC50, Jurkat-CD16a v158-NFAT-luciferase effector cells, U2OS-CLDN18.2 target cells [2] [nM]	ADCC EC50, PBMC effector cells, NUGC-4 target cells [6] [nM]	ADCC Maximum killing (%), PBMC effector cells, NUGC-4 target cells [6] [%]	EC50 [7] [nM]	binding result [9]	EC50 [10] [nM]	MFI [11]	EC50 [12] [nM]	EC50 [20] [nM]	also measured
B1	0.112	1.58	0.03	0.121	0.028	0.44	43.3	3.31	no binding (tested: 200 nM)	21.2	7560	7.78		ADCC EC50, PBMC effector cells, KATOIII target cells [3]: 0.82 nM; ADCC EC50, PBMC effector cells, NIH-3T3-CLDN18.2 target cells [3]: 0.54 nM; ADCC EC50, PBMC effector cells, NUGC-4 target cells [3]: 3.26 nM; ADCC Maximum killing (%), PBMC effector cells, KATOIII target cells [3]: 29.9%; ADCC Maximum killing (%), PBMC effector cells, NIH-3T3-CLDN18.2 target cells [3]: 47%; ADCC Maximum killing (%), PBMC effector cells, NUGC-4 target cells [3]: 22.5%; EC50 [4]: 6.63 nM; EC50 [5]: 44.1 nM; ADCC EC50, PBMC effector cells, KATOIII target cells [6]: 38.4 nM; ADCC Maximum killing (%), PBMC effector cells, KATOIII target cells [6]: 76.8%; CDC EC50, NIH-3T3-CLDN18.2 target cells [8]: 0.27 nM; ADCC EC50, Jurkat-CD16a v158-NFAT-luciferase effector cells, KATOIII target cells [13]: 0.043 nM; ADCC EC50, Jurkat-CD16a v158-NFAT-luciferase effector cells, U2OS-CLDN18.2 target cells [13]: 0.018 nM
B2	0.127	1.07	0.03	0.147	0.032	0.8	45.2		no binding (tested: 200 nM)		7070		5.97	EC50 [14]: 4.47 nM; EC50 [15]: 12.5 nM; EC50 [16]: 7.02 nM; ADCC EC50, Jurkat-CD16a v158-NFAT-luciferase effector cells, NIH-3T3-CLDN18.2 target cells [17]: 0.014 nM; ADCC EC50, Jurkat-CD16a v158-NFAT-luciferase effector cells, NUGC-4 target cells [17]: ~0.014 nM; EC50 [18]: 12.5 nM; CDC EC50, NIH-3T3-CLDN18.2 target cells [19]: 0.29 nM
B3	0.103	2.09	0.02	0.083	0.02	0.68	46.1	3.68	no binding (tested: 200 nM)	20	8940	25.1		
B4	0.302	1.77	0.064	0.214	0.06	0.62	40.9		no binding (tested: 200 nM)		7630		1.79	EC50 [21]: 4.28 nM; EC50 [22]: 19.9 nM
B5		11.4						13.9	no binding (tested: 200 nM)	512	8030	19.5		
